According to the supplement of paper PMC10065799, “High-throughput profiling of sequence recognition by tyrosine kinases and SH2 domains using bacterial peptide display” (eLife, 2023):

Columns and labels:
[1] = biological target: SHP2-C SH2; test: SH2 binding enrichment of the phosphorylated peptide, bacterial display (enrichment ratio); higher = better substrate or ligand; peptides without Tyr show the background
[2] = biological target: c-Src SH2; test: as above
[3] = biological target: Grb2 SH2 (UniProt P62993); test: as above
[4] = biological target: FGFR3 (UniProt P22607); test: phosphorylation enrichment, bacterial display (enrichment ratio); higher = better substrate or ligand; peptides without Tyr show the background
[5] = biological target: Fes (UniProt P07332); test: as above
[6] = biological target: Hck (UniProt P08631); test: as above
[7] = biological target: Fyn (UniProt P06241); test: as above
[8] = system: Fer (mouse); test: as above
[9] = biological target: EPHB2 (UniProt P29323); test: as above
[10] = biological target: FGFR1 (UniProt P11362); test: as above
[11] = system: AncSZ; test: as above
[12] = biological target: EPHB1 (UniProt P54762); test: as above
[13] = biological target: MERTK (UniProt Q12866); test: as above
[14] = biological target: Jak2 (UniProt O60674); test: as above
[15] = system: c-Src; test: as above
[16] = system: c-Abl (mouse); test: as above
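For SH2 binding enrichment of the phosphorylated peptide, bacterial display in this document: peptide library displayed on the E. coli surface as eCPX fusions, selected cells deep-sequenced, score is each peptide's frequency after selection divided by its frequency in the input.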
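For phosphorylation enrichment, bacterial display in this document: 11-residue human phosphosite peptides and single-mutation variants displayed on the E. coli surface, counted by deep sequencing, each peptide's frequency after selection divided by its frequency in the unselected input library; frequency after pTyr selection over input frequency; kinase dosed for 20-30% of maximal phosphorylation in three min.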

Chain of Fes (P07332 whole entry, looked up): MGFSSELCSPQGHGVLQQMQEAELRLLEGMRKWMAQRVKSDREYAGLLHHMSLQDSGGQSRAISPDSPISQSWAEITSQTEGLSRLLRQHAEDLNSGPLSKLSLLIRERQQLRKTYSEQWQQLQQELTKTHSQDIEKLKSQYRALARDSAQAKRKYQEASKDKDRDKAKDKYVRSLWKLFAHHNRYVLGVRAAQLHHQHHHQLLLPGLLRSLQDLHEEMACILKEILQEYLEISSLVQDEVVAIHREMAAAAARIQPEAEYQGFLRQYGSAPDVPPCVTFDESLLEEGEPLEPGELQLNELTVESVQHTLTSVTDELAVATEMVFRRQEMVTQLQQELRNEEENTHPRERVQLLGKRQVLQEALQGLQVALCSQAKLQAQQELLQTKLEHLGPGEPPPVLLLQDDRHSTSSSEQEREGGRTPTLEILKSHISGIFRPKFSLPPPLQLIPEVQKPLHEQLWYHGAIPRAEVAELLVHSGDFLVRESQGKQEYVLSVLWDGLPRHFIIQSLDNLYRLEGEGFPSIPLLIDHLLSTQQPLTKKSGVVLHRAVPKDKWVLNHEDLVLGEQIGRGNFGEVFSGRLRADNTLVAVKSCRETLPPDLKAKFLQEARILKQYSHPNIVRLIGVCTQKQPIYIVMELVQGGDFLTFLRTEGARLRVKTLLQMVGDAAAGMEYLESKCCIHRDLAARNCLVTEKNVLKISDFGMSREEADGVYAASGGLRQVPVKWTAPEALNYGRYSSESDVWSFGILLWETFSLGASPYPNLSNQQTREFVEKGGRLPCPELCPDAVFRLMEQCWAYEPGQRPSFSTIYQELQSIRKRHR
Chain of Hck (P08631 whole entry, looked up): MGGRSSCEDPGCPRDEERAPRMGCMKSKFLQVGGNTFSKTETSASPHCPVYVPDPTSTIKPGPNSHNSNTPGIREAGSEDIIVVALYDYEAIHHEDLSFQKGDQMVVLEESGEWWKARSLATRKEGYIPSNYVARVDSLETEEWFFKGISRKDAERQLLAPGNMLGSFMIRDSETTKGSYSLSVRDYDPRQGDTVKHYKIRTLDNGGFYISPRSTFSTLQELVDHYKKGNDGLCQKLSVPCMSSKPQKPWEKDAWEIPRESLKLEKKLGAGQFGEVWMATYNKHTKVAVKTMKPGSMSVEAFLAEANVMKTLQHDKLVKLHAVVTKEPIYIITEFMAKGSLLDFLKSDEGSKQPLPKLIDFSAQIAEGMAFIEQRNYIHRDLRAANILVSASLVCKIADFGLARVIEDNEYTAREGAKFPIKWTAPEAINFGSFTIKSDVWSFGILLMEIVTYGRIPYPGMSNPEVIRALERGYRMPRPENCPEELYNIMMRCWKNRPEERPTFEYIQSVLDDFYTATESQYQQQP
Chain of EPHB1 (P54762 whole entry, looked up): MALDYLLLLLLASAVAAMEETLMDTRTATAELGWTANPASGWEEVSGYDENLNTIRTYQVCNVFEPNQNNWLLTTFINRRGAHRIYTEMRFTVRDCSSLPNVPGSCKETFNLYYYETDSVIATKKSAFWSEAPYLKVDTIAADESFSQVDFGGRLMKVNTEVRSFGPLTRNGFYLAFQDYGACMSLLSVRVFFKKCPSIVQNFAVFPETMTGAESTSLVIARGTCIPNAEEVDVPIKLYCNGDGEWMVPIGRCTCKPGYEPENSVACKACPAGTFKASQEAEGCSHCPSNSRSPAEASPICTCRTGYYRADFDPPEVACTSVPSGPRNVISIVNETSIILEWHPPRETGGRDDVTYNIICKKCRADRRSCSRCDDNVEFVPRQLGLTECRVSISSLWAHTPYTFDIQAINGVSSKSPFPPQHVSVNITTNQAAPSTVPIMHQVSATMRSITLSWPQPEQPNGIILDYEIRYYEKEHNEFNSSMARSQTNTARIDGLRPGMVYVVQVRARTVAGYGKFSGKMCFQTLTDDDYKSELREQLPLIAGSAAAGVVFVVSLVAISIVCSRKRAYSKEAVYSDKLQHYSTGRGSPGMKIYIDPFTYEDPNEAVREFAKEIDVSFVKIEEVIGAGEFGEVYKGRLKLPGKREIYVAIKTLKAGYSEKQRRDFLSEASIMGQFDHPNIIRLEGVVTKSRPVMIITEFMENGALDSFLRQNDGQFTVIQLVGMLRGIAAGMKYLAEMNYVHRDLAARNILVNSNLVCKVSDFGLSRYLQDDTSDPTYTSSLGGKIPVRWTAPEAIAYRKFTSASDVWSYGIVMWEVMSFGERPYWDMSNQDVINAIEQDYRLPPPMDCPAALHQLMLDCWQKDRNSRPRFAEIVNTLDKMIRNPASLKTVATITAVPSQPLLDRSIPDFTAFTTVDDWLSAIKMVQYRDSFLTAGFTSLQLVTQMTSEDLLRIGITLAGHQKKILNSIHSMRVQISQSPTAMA
Chain of FGFR1 (P11362 whole entry, looked up): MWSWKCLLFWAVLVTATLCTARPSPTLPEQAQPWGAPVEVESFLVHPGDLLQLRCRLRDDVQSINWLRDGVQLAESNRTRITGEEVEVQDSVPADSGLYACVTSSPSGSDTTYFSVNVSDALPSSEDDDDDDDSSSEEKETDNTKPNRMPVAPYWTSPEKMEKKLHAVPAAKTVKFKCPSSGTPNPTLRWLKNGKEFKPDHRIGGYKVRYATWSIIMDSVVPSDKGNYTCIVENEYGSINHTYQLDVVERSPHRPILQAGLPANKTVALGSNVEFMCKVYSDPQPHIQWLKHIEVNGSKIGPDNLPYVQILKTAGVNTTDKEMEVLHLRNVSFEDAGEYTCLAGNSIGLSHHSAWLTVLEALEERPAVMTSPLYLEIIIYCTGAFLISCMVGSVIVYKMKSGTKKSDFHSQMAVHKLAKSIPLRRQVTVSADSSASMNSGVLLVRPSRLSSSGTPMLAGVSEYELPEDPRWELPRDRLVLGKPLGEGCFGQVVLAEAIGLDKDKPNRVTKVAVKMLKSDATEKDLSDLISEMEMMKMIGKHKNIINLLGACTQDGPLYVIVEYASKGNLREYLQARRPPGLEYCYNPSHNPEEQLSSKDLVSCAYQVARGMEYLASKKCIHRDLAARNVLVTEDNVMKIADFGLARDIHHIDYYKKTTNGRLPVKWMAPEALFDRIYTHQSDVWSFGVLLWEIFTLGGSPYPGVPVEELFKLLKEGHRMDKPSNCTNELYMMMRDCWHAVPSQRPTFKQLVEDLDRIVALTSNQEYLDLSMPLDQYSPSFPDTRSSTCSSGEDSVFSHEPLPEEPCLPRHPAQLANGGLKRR
Chain of FGFR3 (P22607 whole entry, looked up): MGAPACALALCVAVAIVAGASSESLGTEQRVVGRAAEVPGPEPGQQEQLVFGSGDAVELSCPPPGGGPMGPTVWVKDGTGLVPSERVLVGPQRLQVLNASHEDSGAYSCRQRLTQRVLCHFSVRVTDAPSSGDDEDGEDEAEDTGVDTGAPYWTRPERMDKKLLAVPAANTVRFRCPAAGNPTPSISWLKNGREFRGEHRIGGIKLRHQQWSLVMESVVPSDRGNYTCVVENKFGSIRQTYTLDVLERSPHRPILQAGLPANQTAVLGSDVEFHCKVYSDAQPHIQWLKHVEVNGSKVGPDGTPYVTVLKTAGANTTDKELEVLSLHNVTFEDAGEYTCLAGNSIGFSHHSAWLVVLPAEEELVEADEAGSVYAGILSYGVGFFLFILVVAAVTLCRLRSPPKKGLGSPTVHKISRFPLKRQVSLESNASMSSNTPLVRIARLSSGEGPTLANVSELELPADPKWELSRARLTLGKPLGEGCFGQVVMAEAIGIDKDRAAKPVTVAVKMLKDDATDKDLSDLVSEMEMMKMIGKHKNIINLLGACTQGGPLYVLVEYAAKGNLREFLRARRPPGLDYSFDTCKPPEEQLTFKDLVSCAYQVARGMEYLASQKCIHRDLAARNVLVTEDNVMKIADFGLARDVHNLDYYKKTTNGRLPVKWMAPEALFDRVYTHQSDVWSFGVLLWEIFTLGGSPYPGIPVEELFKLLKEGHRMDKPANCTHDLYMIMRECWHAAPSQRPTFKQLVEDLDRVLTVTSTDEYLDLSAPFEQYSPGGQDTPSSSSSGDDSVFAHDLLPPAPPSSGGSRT
Chain of Fyn (P06241 whole entry, looked up): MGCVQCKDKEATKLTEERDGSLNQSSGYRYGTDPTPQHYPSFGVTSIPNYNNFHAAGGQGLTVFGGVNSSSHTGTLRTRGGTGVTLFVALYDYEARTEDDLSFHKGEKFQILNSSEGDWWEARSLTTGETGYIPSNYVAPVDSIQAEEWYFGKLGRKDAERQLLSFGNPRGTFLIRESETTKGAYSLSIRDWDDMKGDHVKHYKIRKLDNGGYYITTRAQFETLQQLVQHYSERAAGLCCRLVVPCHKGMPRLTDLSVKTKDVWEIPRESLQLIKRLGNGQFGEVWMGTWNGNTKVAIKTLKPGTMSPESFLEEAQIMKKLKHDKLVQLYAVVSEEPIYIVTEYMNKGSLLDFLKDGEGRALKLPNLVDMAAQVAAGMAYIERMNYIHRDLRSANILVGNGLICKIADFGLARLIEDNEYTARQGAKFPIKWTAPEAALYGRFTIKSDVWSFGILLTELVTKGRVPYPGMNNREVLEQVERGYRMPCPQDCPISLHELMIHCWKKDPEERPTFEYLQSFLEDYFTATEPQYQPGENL

Row | SH2 binding enrichment [1] | SH2 binding enrichment [2] | SH2 binding enrichment [3] | Sequence | phosphorylation enrichment [4] | phosphorylation enrichment [5] | phosphorylation enrichment [6] | phosphorylation enrichment [7] | phosphorylation enrichment [8] | phosphorylation enrichment [9] | phosphorylation enrichment [10] | phosphorylation enrichment [11] | phosphorylation enrichment [12] | phosphorylation enrichment [13] | phosphorylation enrichment [14] | phosphorylation enrichment [15] | phosphorylation enrichment [16]
1 | 0.796 | 0.583 | 0.925 | LFDHIYTTQSD [RET_Y928] | 3.56 | 3.19 | 5.93 | 7.45 | 6.22 | 2 | 2.9 | 2.46 | 1.28 | 1.96 | 1.81 | 4.92 | 0.821
2 | 0.818 | 5.09 | 0.823 | LGIDRYHAIVY [NPSR1_Y147_S143G] | 1.84 | 0.814 | 0.683 | 0.442 | 0.408 | 0.523 | 2.82 | 0.717 | 0.443 | 0.446 | 0.775 | 0.621 | 0.437
3 | 0.805 | 0.496 | 0.813 | LGSWTYPKTVS [ROS1_Y144_T145P] | 0.604 | 1.12 | 0.577 | 0.741 | 0.453 | 0.432 | 0.842 | 0.85 | 0.402 | 0.664 | 0.734 | 0.415 | 0.732
4 | 0.974 | 0.602 | 0.908 | LIPIKYKAMKK [MYD88_Y257] | 0.92 | 0.96 | 0.342 | 0.489 | 0.405 | 0.384 | 0.755 | 0.388 | 0.55 | 0.413 | 0.297 | 0.302 | 0.325
5 | 0.399 | 0.415 | 0.705 | LKLWDYRRGRC [WDR5B_Y239_S240R] | 0.699 | 0.757 | 0.541 | 0.604 | 0.605 | 0.857 | 0.681 | 0.871 | 0.664 | 0.708 | 0.683 | 0.672 | 0.728
6 | 0.641 | 0.713 | 1.25 | LKVKAYRFSIS [LCT_Y974] | 0.835 | 1.22 | 0.6 | 0.648 | 0.52 | 0.498 | 0.9 | 0.911 | 0.672 | 0.493 | 1.3 | 0.463 | 0.824
7 | 0.655 | 0.929 | 1.35 | LLIMEYAKFGS [RET_Y806_V804M_YF] | 0.697 | 1.77 | 1.59 | 1.09 | 0.909 | 0.968 | 0.772 | 1.34 | 1.07 | 0.701 | 2.11 | 1.96 | 1.51
8 | 1.24 | 0.957 | 1.14 | LLKKMYLMLDN [STAT1_Y203] | 0.721 | 0.996 | 0.434 | 0.38 | 0.521 | 0.381 | 0.395 | 0.883 | 0.571 | 0.401 | 0.939 | 0.305 | 0.643
9 | 0.566 | 0.475 | 0.827 | LLSVAYKNVVR [YWHAZ_Y48_G53R] | 0.853 | 1.34 | 0.477 | 0.762 | 0.55 | 0.88 | 1.03 | 1.28 | 0.874 | 0.689 | 1.1 | 0.743 | 1.2
10 | 1.64 | 1.41 | 1.96 | LLVVVYKFRCF [PSEN1_Y154_L153V_YF] | 0.676 | 1.3 | 0.462 | 0.359 | 0.471 | 0.45 | 0.446 | 0.949 | 0.446 | 0.463 | 0.707 | 0.455 | 1.19
11 | 0.761 | 0.518 | 0.958 | LNEQHYGGLTG [PGAM4_Y92_R90Q] | 0.972 | 1.2 | 0.902 | 0.956 | 0.769 | 0.574 | 0.659 | 0.752 | 0.949 | 0.845 | 0.915 | 1.04 | 1.5
12 | 1.66 | 0.727 | 0.86 | LNPLIYSLRNK [OR5R1_Y290] | 1.44 | 2.46 | 8.23 | 6.76 | 1.21 | 1.29 | 1.94 | 1.13 | 2.03 | 1.5 | 1.13 | 6.55 | 2.28
13 | 0.776 | 0.471 | 0.948 | LSGFCYRLSDQ [PDCD6_Y124_G123C] | 1.33 | 1.46 | 0.804 | 0.928 | 0.816 | 1.28 | 0.932 | 1.66 | 1.08 | 0.566 | 1.53 | 0.607 | 1.34
14 | 0.959 | 5.33 | 0.811 | LTFHMYADPNI [SOS1_Y618_F623I_YF] | 2.09 | 2.48 | 0.799 | 0.747 | 1.25 | 2.05 | 1.35 | 2.46 | 1.77 | 0.583 | 2.23 | 0.564 | 1.57
15 | 0.639 | 0.456 | 0.771 | LWQSIYNLDAE [TNNT2_Y251_E254D] | 0.784 | 1.2 | 6.38 | 9.69 | 0.513 | 1.18 | 0.658 | 1.38 | 0.883 | 0.497 | 0.981 | 6.55 | 0.706
16 | 0.64 | 1.08 | 0.724 | MAFDRYVAICS [OR8D4_Y123_C120Y_YF] | 0.726 | 1.14 | 0.665 | 0.515 | 0.563 | 0.762 | 0.463 | 1.15 | 0.905 | 0.507 | 1.07 | 0.489 | 0.78
17 | 0.582 | 0.411 | 0.656 | MAPQMYEFHLP [NCAPD2_Y6] | 0.719 | 0.766 | 0.624 | 0.506 | 19.6 | 3.16 | 0.443 | 0.795 | 4.23 | 5.35 | 0.592 | 0.655 | 0.473
18 | 0.641 | 0.432 | 0.718 | MEIHAYRKLSE [LMNA_Y376_L380S] | 0.495 | 0.788 | 0.466 | 0.356 | 0.39 | 0.459 | 0.371 | 0.729 | 0.379 | 0.342 | 0.678 | 0.384 | 0.641
19 | 0.546 | 0.404 | 0.739 | MHDSNYVSKGS [PDGFRA_Y849] | 0.459 | 0.73 | 0.554 | 0.535 | 0.393 | 0.416 | 0.501 | 0.648 | 0.388 | 0.451 | 0.55 | 0.482 | 0.508

Further lines, the sequence ahead of its results:

Row | Sequence | SH2 binding enrichment [1] | SH2 binding enrichment [2] | SH2 binding enrichment [3] | phosphorylation enrichment [4] | phosphorylation enrichment [5] | phosphorylation enrichment [6] | phosphorylation enrichment [7] | phosphorylation enrichment [8] | phosphorylation enrichment [9] | phosphorylation enrichment [10] | phosphorylation enrichment [11] | phosphorylation enrichment [12] | phosphorylation enrichment [13] | phosphorylation enrichment [14] | phosphorylation enrichment [15] | phosphorylation enrichment [16]
20 | LGLTVYADCLA [ABCA4_Y2063] | 0.553 | 0.564 | 0.918 | 0.78 | 1.39 | 0.515 | 0.589 | 0.584 | 0.657 | 0.618 | 1.14 | 0.686 | 0.369 | 0.992 | 0.473 | 0.815
21 | LIYTNYEAGKD [GSTP1_Y112] | 0.568 | 0.503 | 1.09 | 1.64 | 1.01 | 5.36 | 7.8 | 5.02 | 8.11 | 1.78 | 1.23 | 6.63 | 7.41 | 0.88 | 7.03 | 7.84
22 | LMIEEYLTKEP [BAG3_Y457_L462P] | 0.953 | 0.552 | 0.743 | 1.88 | 2.51 | 1.5 | 0.6 | 0.745 | 0.975 | 1.2 | 2.05 | 1.15 | 1.12 | 2.78 | 1.49 | 2.45
23 | LNLKEYNLVGG [GNAQ_Y356] | 0.844 | 1.17 | 0.783 | 0.698 | 0.867 | 0.485 | 0.529 | 0.685 | 0.411 | 0.357 | 1.23 | 0.307 | 0.424 | 0.793 | 0.561 | 0.709
24 | LSERGYSFVTT [ACTA2_Y200_T196S] | 5.26 | 8.52 | 0.806 | 1.46 | 1.41 | 0.724 | 0.81 | 1.06 | 0.704 | 0.955 | 1.29 | 0.94 | 0.986 | 1.08 | 0.693 | 0.925
25 | LVSCAYQVARG [FGFR1_Y605] | 0.728 | 0.644 | 0.883 | 0.577 | 0.89 | 0.609 | 0.487 | 0.505 | 0.612 | 0.462 | 0.867 | 0.61 | 0.424 | 0.657 | 0.577 | 0.641
26 | LVSCTYQLARR [FGFR2_Y608_G613R] | 0.484 | 0.401 | 0.851 | 0.793 | 1.33 | 0.891 | 0.699 | 0.896 | 1.28 | 0.788 | 1.57 | 0.816 | 0.861 | 1.36 | 0.438 | 0.721
27 | MAQDIYRASFF [ALK_Y1278_R1275Q_YF] | 0.738 | 0.456 | 1.04 | 0.482 | 0.69 | 2.06 | 1.52 | 0.446 | 0.499 | 0.462 | 0.683 | 0.353 | 0.66 | 0.711 | 2.28 | 12.2
28 | MEVGQYIFVKC [CYBB_Y324] | 0.651 | 0.539 | 0.781 | 2.43 | 1.53 | 0.582 | 0.599 | 0.708 | 0.723 | 2.8 | 1.74 | 0.835 | 0.511 | 1.53 | 0.463 | 1.01
29 | MGCVNYGAFIN [GLB1_Y485_R482C_YF] | 0.793 | 0.514 | 0.752 | 0.825 | 1.26 | 0.532 | 0.553 | 0.522 | 0.617 | 0.531 | 1.05 | 0.69 | 0.606 | 1.14 | 1.19 | 1.01
30 | MGHVNYGAYIN [GLB1_Y485_R482H] | 0.902 | 1.39 | 5.27 | 0.444 | 0.661 | 0.471 | 0.521 | 0.395 | 0.796 | 0.384 | 0.602 | 0.535 | 0.358 | 0.672 | 0.589 | 0.571
31 | MHLRQYELLGG [GNAS_Y391] | 0.689 | 7.91 | 0.868 | 0.705 | 0.869 | 0.506 | 0.464 | 0.507 | 0.453 | 0.558 | 0.663 | 0.75 | 0.773 | 0.634 | 0.516 | 0.541
32 | MKNQKYGRIIM [HSD17B4_Y143_K140N] | 1.64 | 1.05 | 1.49 | 0.386 | 0.646 | 0.439 | 0.424 | 0.341 | 0.34 | 0.433 | 0.527 | 0.376 | 0.301 | 0.587 | 0.301 | 0.54
33 | MNLLGYRHVRS [CHST4_Y359] | 0.748 | 0.545 | 0.855 | 0.466 | 0.738 | 0.488 | 0.403 | 0.409 | 0.461 | 0.612 | 0.761 | 0.423 | 0.4 | 0.691 | 0.405 | 0.663
